Values belong to the sequence of their own block, whether it stands above or below them.
Experiments:
[1] = system: AncSZ; assay: phosphorylation enrichment, bacterial display (enrichment ratio); higher = better substrate or ligand; peptides without Tyr show the background
[2] = biological target: EPHB1 (UniProt P54762); assay: as above
[3] = biological target: EPHB2 (UniProt P29323); assay: as above
[4] = biological target: FGFR1 (UniProt P11362); assay: as above
[5] = biological target: FGFR3 (UniProt P22607); assay: as above
FGFR3, sequence (P22607 whole entry, looked up): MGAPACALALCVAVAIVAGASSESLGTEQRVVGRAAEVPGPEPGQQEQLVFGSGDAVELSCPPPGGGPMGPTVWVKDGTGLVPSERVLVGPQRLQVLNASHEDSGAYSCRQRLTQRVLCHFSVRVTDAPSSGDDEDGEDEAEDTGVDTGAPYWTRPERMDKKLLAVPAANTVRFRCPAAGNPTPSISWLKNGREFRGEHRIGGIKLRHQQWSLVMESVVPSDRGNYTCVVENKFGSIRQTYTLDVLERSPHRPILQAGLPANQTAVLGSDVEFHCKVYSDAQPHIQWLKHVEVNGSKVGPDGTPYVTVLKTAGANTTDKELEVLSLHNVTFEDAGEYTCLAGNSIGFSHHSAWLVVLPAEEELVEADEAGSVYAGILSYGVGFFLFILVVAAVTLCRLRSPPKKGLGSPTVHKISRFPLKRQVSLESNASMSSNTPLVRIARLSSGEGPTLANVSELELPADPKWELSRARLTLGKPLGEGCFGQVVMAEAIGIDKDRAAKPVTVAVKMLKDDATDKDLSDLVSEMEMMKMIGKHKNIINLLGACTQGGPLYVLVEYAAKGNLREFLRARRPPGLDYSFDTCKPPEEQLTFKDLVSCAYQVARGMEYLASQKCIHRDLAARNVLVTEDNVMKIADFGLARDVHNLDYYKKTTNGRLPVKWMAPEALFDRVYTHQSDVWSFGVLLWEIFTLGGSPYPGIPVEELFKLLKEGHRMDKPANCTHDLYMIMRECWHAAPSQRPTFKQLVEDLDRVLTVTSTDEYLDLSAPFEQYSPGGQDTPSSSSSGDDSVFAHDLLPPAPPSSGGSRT

[6] = system: Fer (mouse); assay: as above
[7] = biological target: Fes (UniProt P07332); assay: as above
Fes, sequence (P07332 whole entry, looked up): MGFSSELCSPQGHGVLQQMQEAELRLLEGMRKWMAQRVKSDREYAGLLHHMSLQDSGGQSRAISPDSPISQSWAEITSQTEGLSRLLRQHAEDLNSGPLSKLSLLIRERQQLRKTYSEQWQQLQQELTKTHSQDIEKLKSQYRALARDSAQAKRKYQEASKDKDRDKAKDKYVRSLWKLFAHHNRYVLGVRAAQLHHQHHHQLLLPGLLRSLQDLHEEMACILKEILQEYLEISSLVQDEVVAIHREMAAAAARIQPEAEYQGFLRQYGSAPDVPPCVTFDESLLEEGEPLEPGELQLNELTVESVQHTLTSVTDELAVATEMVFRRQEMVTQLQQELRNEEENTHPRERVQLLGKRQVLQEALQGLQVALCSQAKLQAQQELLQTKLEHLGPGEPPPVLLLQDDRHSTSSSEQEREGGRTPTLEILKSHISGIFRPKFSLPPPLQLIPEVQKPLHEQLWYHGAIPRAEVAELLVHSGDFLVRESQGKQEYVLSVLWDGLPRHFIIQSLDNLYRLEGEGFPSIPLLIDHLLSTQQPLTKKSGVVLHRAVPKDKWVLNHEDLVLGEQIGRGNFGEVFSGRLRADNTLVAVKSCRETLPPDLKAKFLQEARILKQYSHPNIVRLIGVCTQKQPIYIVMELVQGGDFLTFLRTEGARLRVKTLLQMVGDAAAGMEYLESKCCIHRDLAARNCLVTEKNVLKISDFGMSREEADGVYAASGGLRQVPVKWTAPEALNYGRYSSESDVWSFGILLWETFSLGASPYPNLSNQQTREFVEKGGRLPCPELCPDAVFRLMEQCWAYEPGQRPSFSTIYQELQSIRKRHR

[8] = biological target: Fyn (UniProt P06241); assay: as above
[9] = biological target: Hck (UniProt P08631); assay: as above
[10] = biological target: Jak2 (UniProt O60674); assay: as above
[11] = biological target: MERTK (UniProt Q12866); assay: as above
MERTK, sequence (Q12866 whole entry, looked up): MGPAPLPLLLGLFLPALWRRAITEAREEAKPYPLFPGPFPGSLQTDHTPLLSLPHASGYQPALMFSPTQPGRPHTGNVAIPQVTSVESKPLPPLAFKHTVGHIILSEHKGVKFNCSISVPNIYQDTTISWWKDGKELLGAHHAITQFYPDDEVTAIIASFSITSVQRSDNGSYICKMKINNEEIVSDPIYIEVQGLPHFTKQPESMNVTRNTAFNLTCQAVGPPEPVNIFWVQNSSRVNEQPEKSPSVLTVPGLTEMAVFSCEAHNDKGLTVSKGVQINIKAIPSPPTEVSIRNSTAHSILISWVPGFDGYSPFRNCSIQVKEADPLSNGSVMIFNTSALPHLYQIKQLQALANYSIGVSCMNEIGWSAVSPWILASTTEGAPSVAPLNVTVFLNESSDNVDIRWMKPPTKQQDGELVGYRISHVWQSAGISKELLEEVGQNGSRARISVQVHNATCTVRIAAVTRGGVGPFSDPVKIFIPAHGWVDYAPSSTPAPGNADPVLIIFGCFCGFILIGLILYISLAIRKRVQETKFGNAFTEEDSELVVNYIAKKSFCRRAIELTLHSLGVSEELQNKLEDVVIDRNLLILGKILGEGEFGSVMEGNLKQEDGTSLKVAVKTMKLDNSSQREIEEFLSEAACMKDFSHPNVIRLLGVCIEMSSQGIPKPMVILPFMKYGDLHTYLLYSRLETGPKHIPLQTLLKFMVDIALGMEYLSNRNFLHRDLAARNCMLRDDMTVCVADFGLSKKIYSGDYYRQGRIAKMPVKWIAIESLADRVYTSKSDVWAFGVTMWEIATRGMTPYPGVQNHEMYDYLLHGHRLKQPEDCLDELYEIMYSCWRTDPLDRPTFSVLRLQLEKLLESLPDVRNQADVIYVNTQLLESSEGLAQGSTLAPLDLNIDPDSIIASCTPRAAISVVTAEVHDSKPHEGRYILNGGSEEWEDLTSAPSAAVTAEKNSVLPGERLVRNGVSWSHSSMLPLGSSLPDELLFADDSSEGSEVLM

[12] = system: c-Abl (mouse); assay: as above
[13] = system: c-Src; assay: as above
[14] = biological target: Grb2 SH2 (UniProt P62993); assay: SH2 binding enrichment of the phosphorylated peptide, bacterial display (enrichment ratio); higher = better substrate or ligand; peptides without Tyr show the background
[15] = biological target: SHP2-C SH2; assay: as above
[16] = biological target: c-Src SH2; assay: as above
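For SH2 binding enrichment of the phosphorylated peptide, bacterial display in this document: peptide library displayed on the E. coli surface as eCPX fusions, selected cells deep-sequenced, score is each peptide's frequency after selection divided by its frequency in the input.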
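For phosphorylation enrichment, bacterial display in this document: 11-residue human phosphosite peptides and single-mutation variants displayed on the E. coli surface, counted by deep sequencing, each peptide's frequency after selection divided by its frequency in the unselected input library; frequency after pTyr selection over input frequency; kinase dosed for 20-30% of maximal phosphorylation in three min.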

EPHB2, sequence (P29323 whole entry, looked up): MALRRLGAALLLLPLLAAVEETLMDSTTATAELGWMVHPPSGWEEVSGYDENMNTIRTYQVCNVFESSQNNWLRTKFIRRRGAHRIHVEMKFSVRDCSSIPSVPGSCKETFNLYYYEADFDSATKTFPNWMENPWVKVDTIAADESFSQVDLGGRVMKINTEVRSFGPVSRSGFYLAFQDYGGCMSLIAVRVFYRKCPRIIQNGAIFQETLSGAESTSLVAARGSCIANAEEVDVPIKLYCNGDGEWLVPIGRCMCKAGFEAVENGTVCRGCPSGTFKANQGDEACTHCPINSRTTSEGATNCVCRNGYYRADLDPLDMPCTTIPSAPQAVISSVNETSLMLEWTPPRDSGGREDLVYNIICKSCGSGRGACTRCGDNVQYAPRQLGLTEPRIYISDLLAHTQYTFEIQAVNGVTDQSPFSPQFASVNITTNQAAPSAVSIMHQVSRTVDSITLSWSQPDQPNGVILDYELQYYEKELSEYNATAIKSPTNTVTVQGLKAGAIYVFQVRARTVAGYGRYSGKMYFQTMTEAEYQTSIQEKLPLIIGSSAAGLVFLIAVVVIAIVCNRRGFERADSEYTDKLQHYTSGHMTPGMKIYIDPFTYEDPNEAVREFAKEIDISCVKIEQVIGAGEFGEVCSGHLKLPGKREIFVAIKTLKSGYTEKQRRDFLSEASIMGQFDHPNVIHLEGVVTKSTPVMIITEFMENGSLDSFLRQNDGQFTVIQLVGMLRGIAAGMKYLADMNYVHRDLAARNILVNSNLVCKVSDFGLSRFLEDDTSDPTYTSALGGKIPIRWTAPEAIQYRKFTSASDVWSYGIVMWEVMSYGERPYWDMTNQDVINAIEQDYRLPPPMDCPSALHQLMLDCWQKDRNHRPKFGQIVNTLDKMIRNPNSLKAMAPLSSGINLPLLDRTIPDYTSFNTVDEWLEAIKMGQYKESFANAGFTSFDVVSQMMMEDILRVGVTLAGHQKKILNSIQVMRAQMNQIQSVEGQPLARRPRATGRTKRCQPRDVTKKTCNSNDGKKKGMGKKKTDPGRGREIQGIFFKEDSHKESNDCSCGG
EPHB1, sequence (P54762 whole entry, looked up): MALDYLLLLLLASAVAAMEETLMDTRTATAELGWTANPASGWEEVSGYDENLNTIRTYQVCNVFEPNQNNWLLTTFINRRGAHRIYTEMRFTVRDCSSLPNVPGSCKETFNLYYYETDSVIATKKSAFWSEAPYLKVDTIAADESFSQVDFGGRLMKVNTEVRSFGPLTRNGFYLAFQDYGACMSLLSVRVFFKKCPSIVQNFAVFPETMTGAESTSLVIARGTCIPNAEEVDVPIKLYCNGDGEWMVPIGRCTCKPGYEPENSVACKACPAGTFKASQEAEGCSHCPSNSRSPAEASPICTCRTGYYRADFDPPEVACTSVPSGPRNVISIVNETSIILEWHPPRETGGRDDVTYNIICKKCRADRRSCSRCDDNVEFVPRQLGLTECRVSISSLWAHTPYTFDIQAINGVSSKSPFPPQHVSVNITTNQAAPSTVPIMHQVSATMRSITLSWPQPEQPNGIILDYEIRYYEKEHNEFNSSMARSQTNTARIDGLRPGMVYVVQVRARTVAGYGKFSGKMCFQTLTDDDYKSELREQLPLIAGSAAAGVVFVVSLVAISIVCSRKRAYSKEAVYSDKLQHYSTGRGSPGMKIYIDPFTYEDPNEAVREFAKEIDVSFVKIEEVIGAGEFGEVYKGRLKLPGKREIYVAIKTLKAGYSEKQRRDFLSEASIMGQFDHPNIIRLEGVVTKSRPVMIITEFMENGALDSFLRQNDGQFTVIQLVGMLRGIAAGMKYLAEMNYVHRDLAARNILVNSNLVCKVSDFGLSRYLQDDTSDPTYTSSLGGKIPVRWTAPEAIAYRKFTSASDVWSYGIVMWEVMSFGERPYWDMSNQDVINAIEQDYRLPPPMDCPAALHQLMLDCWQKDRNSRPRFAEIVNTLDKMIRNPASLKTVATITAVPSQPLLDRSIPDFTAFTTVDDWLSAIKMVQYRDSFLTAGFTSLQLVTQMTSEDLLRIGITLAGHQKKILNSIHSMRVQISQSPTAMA

SH2 binding enrichment [14]: 1.36
SH2 binding enrichment [15]: 1.24
SH2 binding enrichment [16]: 1.11
Sequence: LHAAAYWNALA [UQCRC2_Y182_R183W]
phosphorylation enrichment [1]: 0.769
phosphorylation enrichment [2]: 0.419
phosphorylation enrichment [3]: 0.572
phosphorylation enrichment [4]: 0.379
phosphorylation enrichment [5]: 0.564
phosphorylation enrichment [6]: 0.385
phosphorylation enrichment [7]: 0.882
phosphorylation enrichment [8]: 0.388
phosphorylation enrichment [9]: 0.428
phosphorylation enrichment [10]: 0.926
phosphorylation enrichment [11]: 0.461
phosphorylation enrichment [12]: 0.582
phosphorylation enrichment [13]: 0.424

SH2 binding enrichment [14]: 1.01
SH2 binding enrichment [15]: 0.712
SH2 binding enrichment [16]: 0.797
Sequence: RRIHNYRGHLW [VHL_Y112_S111N]
phosphorylation enrichment [1]: 0.577
phosphorylation enrichment [2]: 0.714
phosphorylation enrichment [3]: 0.421
phosphorylation enrichment [4]: 0.433
phosphorylation enrichment [5]: 0.511
phosphorylation enrichment [6]: 0.27
phosphorylation enrichment [7]: 0.738
phosphorylation enrichment [8]: 0.481
phosphorylation enrichment [9]: 0.509
phosphorylation enrichment [10]: 0.501
phosphorylation enrichment [11]: 0.597
phosphorylation enrichment [12]: 0.609
phosphorylation enrichment [13]: 0.607

SH2 binding enrichment [14]: 0.867
SH2 binding enrichment [15]: 0.666
SH2 binding enrichment [16]: 0.422
Sequence: FQRLQYIKQLG [SAMHD1_Y146_R145Q]
phosphorylation enrichment [1]: 0.715
phosphorylation enrichment [2]: 0.92
phosphorylation enrichment [3]: 0.705
phosphorylation enrichment [4]: 0.451
phosphorylation enrichment [5]: 0.517
phosphorylation enrichment [6]: 0.453
phosphorylation enrichment [7]: 0.854
phosphorylation enrichment [8]: 0.374
phosphorylation enrichment [9]: 0.418
phosphorylation enrichment [10]: 0.934
phosphorylation enrichment [11]: 0.404
phosphorylation enrichment [12]: 0.665
phosphorylation enrichment [13]: 0.476

SH2 binding enrichment [14]: 0.925
SH2 binding enrichment [15]: 0.529
SH2 binding enrichment [16]: 0.582
Sequence: FSAPNCCYRCG [PPP2CA_Y265_Y265C]
phosphorylation enrichment [1]: 1
phosphorylation enrichment [2]: 0.671
phosphorylation enrichment [3]: 0.676
phosphorylation enrichment [4]: 0.489
phosphorylation enrichment [5]: 0.76
phosphorylation enrichment [6]: 0.547
phosphorylation enrichment [7]: 1.21
phosphorylation enrichment [8]: 0.518
phosphorylation enrichment [9]: 0.55
phosphorylation enrichment [10]: 1.02
phosphorylation enrichment [11]: 0.505
phosphorylation enrichment [12]: 0.833
phosphorylation enrichment [13]: 0.5

SH2 binding enrichment [14]: 0.797
SH2 binding enrichment [15]: 0.63
SH2 binding enrichment [16]: 0.39
Sequence: LNLDTYQKRLR [PLA2G2D_Y126_R121L]
phosphorylation enrichment [1]: 0.517
phosphorylation enrichment [2]: 0.44
phosphorylation enrichment [3]: 0.42
phosphorylation enrichment [4]: 0.69
phosphorylation enrichment [5]: 0.518
phosphorylation enrichment [6]: 0.336
phosphorylation enrichment [7]: 0.613
phosphorylation enrichment [8]: 0.672
phosphorylation enrichment [9]: 0.518
phosphorylation enrichment [10]: 0.389
phosphorylation enrichment [11]: 0.511
phosphorylation enrichment [12]: 0.502
phosphorylation enrichment [13]: 0.442

SH2 binding enrichment [14]: 0.785
SH2 binding enrichment [15]: 0.744
SH2 binding enrichment [16]: 0.512
Sequence: PVDGEYFTLQI [TP53_Y327_L323V]
phosphorylation enrichment [1]: 4.07
phosphorylation enrichment [2]: 1.16
phosphorylation enrichment [3]: 1.36
phosphorylation enrichment [4]: 11.4
phosphorylation enrichment [5]: 9.07
phosphorylation enrichment [6]: 1.31
phosphorylation enrichment [7]: 1.86
phosphorylation enrichment [8]: 4.09
phosphorylation enrichment [9]: 2.38
phosphorylation enrichment [10]: 3.14
phosphorylation enrichment [11]: 0.623
phosphorylation enrichment [12]: 1.38
phosphorylation enrichment [13]: 3.58

Sequence: SIKHKYVTALF [KCNH2_Y611_D609H_YF]
phosphorylation enrichment [1]: 0.674
phosphorylation enrichment [2]: 0.471
phosphorylation enrichment [3]: 0.474
phosphorylation enrichment [4]: 0.354
phosphorylation enrichment [5]: 0.511
phosphorylation enrichment [6]: 0.416
phosphorylation enrichment [7]: 0.622
phosphorylation enrichment [8]: 0.377
phosphorylation enrichment [9]: 0.419
phosphorylation enrichment [10]: 0.694
phosphorylation enrichment [11]: 0.4
phosphorylation enrichment [12]: 0.524
phosphorylation enrichment [13]: 0.402
SH2 binding enrichment [14]: 0.78
SH2 binding enrichment [15]: 0.901
SH2 binding enrichment [16]: 0.473

SH2 binding enrichment [14]: 0.62
SH2 binding enrichment [15]: 0.564
SH2 binding enrichment [16]: 0.566
Sequence: FADIAYNFHHG [PAH_Y166_R169H_YF]
phosphorylation enrichment [1]: 0.686
phosphorylation enrichment [2]: 0.427
phosphorylation enrichment [3]: 0.524
phosphorylation enrichment [4]: 0.515
phosphorylation enrichment [5]: 0.478
phosphorylation enrichment [6]: 0.483
phosphorylation enrichment [7]: 0.725
phosphorylation enrichment [8]: 0.704
phosphorylation enrichment [9]: 0.528
phosphorylation enrichment [10]: 0.43
phosphorylation enrichment [11]: 0.406
phosphorylation enrichment [12]: 0.354
phosphorylation enrichment [13]: 0.501

Reference: the supplement of paper PMC10065799, “High-throughput profiling of sequence recognition by tyrosine kinases and SH2 domains using bacterial peptide display” (eLife, 2023)
